# Measurements from IntAct's records for PubMed 29892012.
# B1: Keratin, type I cuticular Ha8 (Homo sapiens), O76015 (parent)
# chain: MTSSYSSSSCPLGCTMAPGARNVSVSPIDIGCQPGAEANIAPMCLLANVAHANRVRVGSTPLGRPSLCLPPTCHTACPLPGTCHIPGNIGICGAYGENTLNGHEKETMQFLNDRLANYLEKVRQLEQENAELEATLLERSKCHESTVCPDYQSYFHTIEELQQKILCSKAENARLIVQIDNAKLAADDFRIKLESERSLRQLVEADKCGTQKLLDDATLAKADLEAQQESLKEEQLSLKSNHEQEVKILRSQLGEKLRIELDIEPTIDLNRVLGEMRAQYEAMLETNRQDVEQWFQAQSEGISLQDMSCSEELQCCQSEILELRCTVNALEVERQAQHTLKDCLQNSLCEAEDRFGTELAQMQSLISNVEEQLSEIRADLERQNQEYQVLLDVKTRLENEIATYRNLLESEDCKLPCNPCSTSPSCVTAPCAPRPSCGPCTTCGPTCGASTTGSRF
# partner: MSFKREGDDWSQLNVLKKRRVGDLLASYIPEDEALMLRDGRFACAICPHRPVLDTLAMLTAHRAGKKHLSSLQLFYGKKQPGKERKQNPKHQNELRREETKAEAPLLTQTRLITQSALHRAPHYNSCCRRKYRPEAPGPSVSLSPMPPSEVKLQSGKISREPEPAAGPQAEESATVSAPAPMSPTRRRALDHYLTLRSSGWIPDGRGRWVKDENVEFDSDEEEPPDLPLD
# B2: Genetic suppressor element 1 (Homo sapiens), Q14687 (parent)
# chain: MKGMSHEPKSPSLGMLSTATRTTATVNPLTPSPLNGALVPSGSPATSSALSAQAAPSSSFAAALRKLAKQAEEPRGSSLSSESSPVSSPATNHSSPASTPKRVPMGPIIVPPGGHSVPSTPPVVTIAPTKTVNGVWRSESRQDAGSRSSSGGRERLIVEPPLPQEKAGGPAIPSHLLSTPYPFGLSPSSVVQDSRFPPLNLQRPVHHVVPPSTVTEDYLRSFRPYHTTDDLRMSSLPPLGLDPATAAAYYHPSYLAPHPFPHPAFRMDDSYCLSALRSPFYPIPTPGSLPPLHPSAMHLHLSGVRYPPELSHSSLAALHSERMSGLSAERLQMDEELRREREREREREREREADREREKEREREREKEREQEKEREREKERERELERQREQRAREKELLAAKALEPSFLPVAELHGLRGHATEERGKPSEQLTPTRAEKLKDAGLQAPKPVQHPLHPVPTPHHTVPSLISNHGIFSLPSSSAATALLIQRTNEEEKWLARQRRLRQEKEDRQSQVSEFRQQVLEQHLDMGRPPVPAEAEHRPESTTRPGPNRHEPGGRDPPQHFGGPPPLISPKPQLHAAPTALWNPVSLMDNTLETRRAESHSLHSHPAAFEPSRQAAVPLVKVERVFCPEKAEEGPRKREPAPLDKYQPPPPPPREGGSLEHQPFLPGPGPFLAELEKSTQTILGQQRASLPQAATFGELSGPLKPGSPYRPPVPRAPDPAYIYDEFLQQRRRLVSKLDLEERRRREAQEKGYYYDLDDSYDESDEEEVRAHLRCVAEQPPLKLDTSSEKLEFLQLFGLTTQQQKEELVAQKRRKRRRMLRERSPSPPTIQSKRQTPSPRLALSTRYSPDEMNNSPNFEEKKKFLTIFNLTHISAEKRKDKERLVEMLRAMKQKALSAAVADSLTNSPRDSPAVSLSEPATQQASLDVEKPVGVAASLSDIPKAAEPGKLEQVRPQELSRVQELAPASGEKARLSEAPGGKKSLSMLHYIRGAAPKDIPVPLSHSTNGKSKPWEPFVAEEFAHQFHESVLQSTQKALQKHKGSVAVLSAEQNHKVDTSVHYNIPELQSSSRAPPPQHNGQQEPPTARKGPPTQELDRDSEEEEEEDDEDGEDEEEVPKRKWQGIEAVFEAYQEHIEEQNLERQVLQTQCRRLEARHYSLSLTAEQLSHSVAELRSQKQKMVSERERLQAELDHLRKCLALPAMHWPRGYLKGYPR
# partner: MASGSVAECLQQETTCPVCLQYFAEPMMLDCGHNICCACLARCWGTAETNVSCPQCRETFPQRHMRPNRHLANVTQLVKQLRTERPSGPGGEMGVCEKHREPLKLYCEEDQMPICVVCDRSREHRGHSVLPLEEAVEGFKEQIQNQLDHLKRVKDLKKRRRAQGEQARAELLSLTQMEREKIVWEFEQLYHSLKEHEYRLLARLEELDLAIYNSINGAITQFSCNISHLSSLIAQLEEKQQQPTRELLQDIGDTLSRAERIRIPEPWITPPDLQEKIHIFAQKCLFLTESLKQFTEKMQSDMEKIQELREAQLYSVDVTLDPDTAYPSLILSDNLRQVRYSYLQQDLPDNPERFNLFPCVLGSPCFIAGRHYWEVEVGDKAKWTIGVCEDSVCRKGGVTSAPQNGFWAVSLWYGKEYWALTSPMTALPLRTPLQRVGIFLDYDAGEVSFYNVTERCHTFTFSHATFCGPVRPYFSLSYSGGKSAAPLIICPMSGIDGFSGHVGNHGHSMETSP
# B3: Genetic suppressor element 1 (Homo sapiens), Q14687 (parent)
# chain: B2 chain
# partner: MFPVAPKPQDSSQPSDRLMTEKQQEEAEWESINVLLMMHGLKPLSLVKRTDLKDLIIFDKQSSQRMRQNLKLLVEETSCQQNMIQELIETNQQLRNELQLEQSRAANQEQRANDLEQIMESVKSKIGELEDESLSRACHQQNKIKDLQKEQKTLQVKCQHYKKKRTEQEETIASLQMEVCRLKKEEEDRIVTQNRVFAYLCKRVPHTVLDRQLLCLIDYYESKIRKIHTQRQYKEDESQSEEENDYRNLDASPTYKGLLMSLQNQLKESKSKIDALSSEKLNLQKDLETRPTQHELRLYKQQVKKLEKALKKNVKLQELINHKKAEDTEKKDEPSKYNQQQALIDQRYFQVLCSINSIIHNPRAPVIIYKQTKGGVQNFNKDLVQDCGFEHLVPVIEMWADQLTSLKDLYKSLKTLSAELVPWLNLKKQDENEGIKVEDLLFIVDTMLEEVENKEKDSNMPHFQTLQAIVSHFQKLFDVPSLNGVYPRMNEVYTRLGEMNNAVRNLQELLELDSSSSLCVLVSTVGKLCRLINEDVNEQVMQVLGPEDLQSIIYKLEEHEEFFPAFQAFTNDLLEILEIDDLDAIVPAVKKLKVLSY
# Variants of: B1
# Details: with scnm1_human SCNM1, Q9BWG6
row,effect of a mutation on the interaction,Variant
1,with no effect,D306A

# Variants of: B1
# Details: with scnm1_human SCNM1, Q9BWG6
# Remark: another data set of the same source
row,effect of a mutation on the interaction,Variant
1,with no effect,N270K

# Variants of: B2
# Details: with tri27_human TRIM27, P14373
row,effect of a mutation on the interaction,Variant
1,with no effect,R503Q

# Variants of: B2
# Details: with tri27_human TRIM27, P14373
# Remark: another data set of the same source
row,effect of a mutation on the interaction,Variant
1,with no effect,E368K

# Variants of: B3
# Details: with cep70_human CEP70, Q8NHQ1
row,effect of a mutation on the interaction,Variant
1,with no effect,E368K
